According to US20220235138A1, “CAR-T CELLS TARGETING IL-1RAP AND THEIR USE IN ACUTE MYELOID LEUKEMIA (AML)” (ETABLISSEMENT FRANCAIS DU SANG, priority 2019, published 2022):

What was measured:
[1] = molecular target: T1, recombinant IL-1RAP biotinylated protein (Homo sapiens, UniProt Q9NPH3); assay: Flow cytometry detection of cell surface CAR with biotinylated recombinant IL-1RAP; assay type: binding; conditions: for amount of recombinant IL-1RAP protein required for recruiting maximum of cells: single experiment
T1 sequence (Q9NPH3 21-359 limits assumed): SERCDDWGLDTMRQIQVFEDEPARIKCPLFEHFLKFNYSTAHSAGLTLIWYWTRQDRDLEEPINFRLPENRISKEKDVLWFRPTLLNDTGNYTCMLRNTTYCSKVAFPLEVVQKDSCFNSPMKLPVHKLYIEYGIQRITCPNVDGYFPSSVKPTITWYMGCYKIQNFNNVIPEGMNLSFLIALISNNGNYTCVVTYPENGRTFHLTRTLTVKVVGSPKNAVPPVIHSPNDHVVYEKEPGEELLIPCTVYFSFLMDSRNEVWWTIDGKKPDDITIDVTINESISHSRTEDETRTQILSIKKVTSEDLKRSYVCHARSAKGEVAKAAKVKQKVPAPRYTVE
Method: CEM cell line or primary T cells were transduced either with Mock or CAR IL-1RAP. Cells were then incubated in presence of increasing amount of recombinant IL-1RAP labelled with biotin. Staining was performed with an anti-biotin fluorescent antibody and analyzed by flow cytometry. Percentage of Biotin+/CD19+ CEM or T-cells plotted against amount of labelled biotin recombinant protein. Dot plots of cytometry analyze were provided for representative staining, including maximum. Untransduced T cells (C0) or Mock T cells were used as control.
Additional analysis using serial dilution of biotinylated IL-1RAP protein (from 20 ng to 2.4 pg/ml) and FACS analysis allow to detect either IL-1RAP CAR transduced CEM T cell line or primary T-cells.

[2] = test system: iCASP9/AP1903 suicide system; assay: Optical microscopy of transduced 293T cells after CID AP1903 exposure; assay type: cell-based, human; conditions: CID AP1903 20 nM, 24 h (10 nM)
[3] = transduced primary T-cells (GMTC)

- maximum percentage of Biotin+/CD19+ cells ([1]; transduced CEM T cell line): 85.8%
- amount of recombinant IL-1RAP protein required for recruiting maximum of cells ([1]; transduced CEM T cell line): 1.25 ng
- maximum percentage of Biotin+/CD19+ cells [1, 3]: 68.5%
- amount of recombinant IL-1RAP protein required for recruiting maximum of cells [1, 3]: 0.15 ng
B1: IL-1RAP CAR: chimeric antigen receptor: #E3C3 scFv in frame with CD28-4.1BB-CD3z signaling chain; tested in transduced CEM, primary T or 293T cells (protein)
scFv: QVQLQQPGAELMMPGASVKVSCEASGYTFTDSWMHWVKQRPGQGLEWIGAIDPSDSYTTYNQKFTGKATLSVDESSNTAYMQLSSLTSEDSAVYYCARYYSGSNYISPFPYWGQGTLVTVSAGGSGGGGSGGGGSVDMESQIQVFVFVFLWLSGVDGDIVMTQSHKFMSTSVGDRVTITCKASLDVSTAVAWYQQKPGQSPKLLIYSASYRYTGVPDRFTGSGSGTDFTFTISSVQAEDLAVYYCQQHYSPPFTFGSGTNLEIK
modifications: left off: small tags and cut ends
notes: chimeric antigen receptor: #E3C3 scFv in frame with CD28-4.1BB-CD3z signaling chain; tested in transduced CEM, primary T or 293T cells
- CAR recognition and binding of IL-1RAP protein [1]: CAR specific recognition and binding of IL-1RAP protein
- sensitivity of transduced 293T cell culture to CID [2]: sensitive to the CID
